The source of these data is US20210315964A1 (University of Pennsylvania, published 2021).

T1: recombinant human peroxiredoxin 6 (hPrdx6) (human, UniProt P30041 1-224, limits assumed)
T1 sequence (looked up): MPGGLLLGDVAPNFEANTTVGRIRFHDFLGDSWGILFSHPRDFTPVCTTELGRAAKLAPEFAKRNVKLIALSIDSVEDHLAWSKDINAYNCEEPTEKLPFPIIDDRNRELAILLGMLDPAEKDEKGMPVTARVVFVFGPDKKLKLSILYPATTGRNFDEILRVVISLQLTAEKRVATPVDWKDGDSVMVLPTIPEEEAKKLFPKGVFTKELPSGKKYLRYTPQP

The target in one experiment is T1, recombinant human peroxiredoxin 6 …. Briefly: cell-based or functional assay.
Take LHDFRHQTL [SN029 (row of SEQ ID NO: 33) LHDFRHQTL]: the “aiPLA2 activity of human recombinant Prdx6 with peptide (no peptide, hPrdx6 only: 99.91)” value amounted to 100 nmol/min/mg prot.

On to LHDFRDQIL [SN024 LHDFRDQIL], for which the “aiPLA2 activity of human recombinant Prdx6 with peptide (no peptide, hPrdx6 only: 99.91)” value is 102 nmol/min/mg prot.

On to LHEFKHQIL [SN022 LHEFKHQIL], for which the “aiPLA2 activity of human recombinant Prdx6 with peptide (no peptide, hPrdx6 only: 99.91)” value is 99.4 nmol/min/mg prot.

Regarding LHDFRHNIL [SN026 LHDFRHNIL], the “aiPLA2 activity of human recombinant Prdx6 with peptide (no peptide, hPrdx6 only: 99.91)” value stood at 99 nmol/min/mg prot.

For the molecule LKIEYHQIL [SN019 LKIEYHQIL], the “aiPLA2 activity of human recombinant Prdx6 with peptide (no peptide, hPrdx6 only: 99.91)” value came out at 97.7 nmol/min/mg prot.

LYDIRHQIL [PIP-5 LYDIRHQIL]: the “aiPLA2 activity of human recombinant Prdx6 with peptide (no peptide, hPrdx6 only: 99.91)” value came out at 29.7 nmol/min/mg prot.

Turning to LFKLEHQIL [SN023 LFKLEHQIL], the “aiPLA2 activity of human recombinant Prdx6 with peptide (no peptide, hPrdx6 only: 99.91)” value came out at 98 nmol/min/mg prot.

Turning to LHDFRHIIL [SN029 (row of SEQ ID NO: 31) LHDFRHIIL], the “aiPLA2 activity of human recombinant Prdx6 with peptide (no peptide, hPrdx6 only: 99.91)” value is 97.3 nmol/min/mg prot.

With LRFDHHQIL [SN020 LRFDHHQIL], the “aiPLA2 activity of human recombinant Prdx6 with peptide (no peptide, hPrdx6 only: 99.91)” value was 99 nmol/min/mg prot.

As to LHDFRHQLL [SN028 LHDFRHQLL], the “aiPLA2 activity of human recombinant Prdx6 with peptide (no peptide, hPrdx6 only: 99.91)” value amounted to 102 nmol/min/mg prot.

Take LHDFRHQIL [PIP-2 LHDFRHQIL]: the “aiPLA2 activity of human recombinant Prdx6 with peptide (no peptide, hPrdx6 only: 99.91)” value stood at 26.2 nmol/min/mg prot.

As to LHDFRPQIL [SN025 LHDFRPQIL], the “aiPLA2 activity of human recombinant Prdx6 with peptide (no peptide, hPrdx6 only: 99.91)” value stood at 101 nmol/min/mg prot.

For a further experiment the target is unchanged. The experiment is described as follows: cell-based or functional assay. The source holds these as a separate data set.
Take TLHDFRHQI [SEQ ID NO: 19 … (10)]: the “aiPLA2 activity of human recombinant protein with peptide (hPrdx6 only: 92.0)” value (shortened to “aiPLA2 activity … (hPrdx6 only: 92.0)”) was found to be 31.5 nmol/min/mg prot.

DEELQTELYEIKHQIL [PIP-3 (rat, mouse, 16-mer) DEELQTELYEIKHQIL]: the “aiPLA2 activity … (hPrdx6 only: 92.0)” value turned out to be 32 nmol/min/mg prot.

For the molecule LHDFRHQIL [PIP-2 LHDFRHQIL], the “aiPLA2 activity … (hPrdx6 only: 92.0)” value worked out at 29.9 nmol/min/mg prot.

LYEIKHQIL [PIP-4 LYEIKHQIL]: the “aiPLA2 activity … (hPrdx6 only: 92.0)” value amounted to 32.3 nmol/min/mg prot.

The target is the same in another experiment. The experiment is described as follows: cell-based or functional assay. The source holds these as a separate data set.
With YEIKHQIL [SEQ ID NO: 13 YEIKHQIL (8)], the “aiPLA2 activity of recombinant hPrdx6 with peptide (hPrdx6 only, no peptide: 93.4)” value came out at 94.4 nmol/min/mg prot.

On to QTELYEIKHQIL [SEQ ID NO: 11 QTELYEIKHQIL (12)], for which the “aiPLA2 activity of recombinant hPrdx6 with peptide (hPrdx6 only, no peptide: 93.4)” value worked out at 31.5 nmol/min/mg prot.

In the case of ELYEIKHQIL [SEQ ID NO: 12 ELYEIKHQIL (10)], the “aiPLA2 activity of recombinant hPrdx6 with peptide (hPrdx6 only, no peptide: 93.4)” value turned out to be 28.6 nmol/min/mg prot.

Turning to DEELQTELYEIKHQIL [PIP-3 (rat, mouse, 16-mer) DEELQTELYEIKHQIL], the “aiPLA2 activity of recombinant hPrdx6 with peptide (hPrdx6 only, no peptide: 93.4)” value was found to be 32 nmol/min/mg prot.

In the case of IKHQIL [SEQ ID NO: 14 IKHQIL (6)], the “aiPLA2 activity of recombinant hPrdx6 with peptide (hPrdx6 only, no peptide: 93.4)” value turned out to be 97.1 nmol/min/mg prot.

Regarding DEELQTELYEIK [SEQ ID NO: 15 … (14)], the “aiPLA2 activity of recombinant hPrdx6 with peptide (hPrdx6 only, no peptide: 93.4)” value came to 102 nmol/min/mg prot.

With ELQTELYEIKHQIL [SEQ ID NO: 10 ELQTELYEIKHQIL (14)], the “aiPLA2 activity of recombinant hPrdx6 with peptide (hPrdx6 only, no peptide: 93.4)” value came to 33.2 nmol/min/mg prot.

Take DEELQTELYEI [SEQ ID NO: 16 … (12)]: the “aiPLA2 activity of recombinant hPrdx6 with peptide (hPrdx6 only, no peptide: 93.4)” value was 95.7 nmol/min/mg prot.

On to DEELQATLHDFRHQIL [PIP-1 (human, 16-mer) DEELQATLHDFRHQIL], for which the “aiPLA2 activity of recombinant hPrdx6 with peptide (hPrdx6 only, no peptide: 93.4)” value is 45 nmol/min/mg prot.
